Experimental data from US20130236470A1.

How the values were obtained:
[1] = target: HLA-DR expressed by L428 cells (human); test: flow cytometry on L428 cells, antibody 15.6 ng/mL
[2] = target: HLA-DR expressed by L428 cells (human); test: flow cytometry on L428 cells, antibody 62.5 ng/mL
[3] = target: HLA-DR expressed by L428 cells (human); test: flow cytometry on L428 cells, antibody 0.0 ng/mL (background)
[4] = target: HLA-DR expressed by L428 cells (human); test: flow cytometry on L428 cells, antibody 0.98 ng/mL
[5] = target: HLA-DR expressed by L428 cells (human); test: flow cytometry on L428 cells, antibody 1.95 ng/mL
[6] = target: HLA-DR expressed by L428 cells (human); test: flow cytometry on L428 cells, antibody 31.2 ng/mL
[7] = target: HLA-DR expressed by L428 cells (human); test: flow cytometry on L428 cells, antibody 125.0 ng/mL
[8] = target: HLA-DR expressed by L428 cells (human); test: flow cytometry on L428 cells, antibody 7.8 ng/mL
[9] = target: HLA-DR expressed by L428 cells (human); test: flow cytometry on L428 cells, antibody 3.9 ng/mL
[10] = target: HLA-DR expressed by L428 cells (human); test: flow cytometry on L428 cells, antibody 250.0 ng/mL

Ability to bind (average strength) [1]: 694 | Ability to bind (average strength) [2]: 1610 | Ability to bind (average strength) [3]: 129 | Ability to bind (average strength) [4]: 181 | Ability to bind (average strength) [5]: 230 | Ability to bind (average strength) [6]: 928 | Ability to bind (average strength) [7]: 2420 | Ability to bind (average strength) [8]: 430 | Ability to bind (average strength) [9]: 339 | Ability to bind (average strength) [10]: 3270
Substance: commercially available antibody (clone name: LN3) known to bind to HLA-DR
